According to patent publication US20240033341A1 (CALIFORNIA INSTITUTE OF TECHNOLOGY, published 2024):

Tests used:
IGT2 SOSIP = molecular target: T1, IGT2 SOSIP (HIV-1 (clade C strain 426c, engineered)); assay: SPR with SOSIP (FIG. 6I), ELISA (FIG. 1E)
T1 construct: also called SOSIP version of IGT2

IGT2 gp120 [1] = molecular target: T2, IGT2 gp120 (HIV-1 (clade C strain 426c, engineered)); assay: ELISA, gp120 coated on the plate, IgG titrated
IGT2 gp120 [2] = molecular target: T2, IGT2 gp120; assay: ELISA with gp120 (FIG. 1E, FIG. 6J)
426c.TM4 gp120 = 426c.TM4 gp120 (HIV-1 (clade C strain 426c, engineered)); assay: ELISA, gp120 coated on the plate, IgG titrated
CE0217 (Autologous) = molecular target: T3, CE0217 (Autologous); assay: Env ELISA, IgG dilution series on SOSIP trimer, area under the binding curve
T3 construct: also called CE0217 SOSIP

BG505 = assay: as above
CNE20 = molecular target: T4, CNE20; assay: as above
T4 construct: also called CNE20 SOSIP

CNE20 N276A = assay: as above

Binder | binding result (IGT2 SOSIP) | binding result (IGT2 gp120 [1]) | binding result (IGT2 gp120 [2]) | binding result (426c.TM4 gp120) | binding result (CE0217 (Autologous)) | binding result (BG505) | binding result (CNE20) | binding result (CNE20 N276A)
VRC01 iGL IgG (antibody, V domains shown) VH: not shown VL: EIVLTQSPATLSLSPGERATLSCRASQSVSSYLAWYQQKPGQAPRLLIYDASNRATGIPARFSGSGSGTDFTLTISSLEPEDFAVYYCQQYEFFGQGTKLEIKR | binds | binds |  |  |  |  |  | 
3BNC60 iGL IgG (antibody, V domains shown) VH: not shown VL: DIQMTQSPSSLSASVGDRVTITCQASQDISNYLNWYQQKPGKAPKLLIYDASNLETGVPSRFSGSGSGTDFTFTISSLQPEDIATYYCQQYEFIGPGTKVDIKR | binds |  | binds | binds |  |  |  | 
IOMA IgG (antibody, V domains shown, Mature CD4bs bNAb; also called mature IOMA) VH: EVQLVESGAQVKKPGASVTVSCTASGYKFTGYHMHWVRQAPGRGLEWMGWINPFRGAVKYPQNFRGRVSMTRDTSMEIFYMELSRLTSDDTAVYYCAREMFDSSADWSPWRGMVAWGQGTLVTVSS VL: QSALTQPASVSGSPGQSITISCAGSSRDVGGFDLVSWYQQHPGKAPKLIIYEVNKRPSGISSRFSASKSGNTASLTISGLQEEDEAHYYCYSYADGVAFGGGTKLTVLG |  |  |  |  | binds | binds | binds | binds
IO-010 (antibody, V domains shown, also called 10-010) VH: QVQLVQSGAEVKKPGASVTVSCKASGYTFTGYHLHWVRQAPGQGLEWMGWINPFRGAIGYAQKFRGRVTMTRDTSIITAYMELRGLRSDDTAVYFCAREMFDSDDEWSPWRGMVAWGQGTLVTVSS VL: QSALTQPASVSGSPGQSITISCTGTSSDIGGYNLVSWYQQHPGKAPKLMIYDVNKRPSGVSNRFSGSKSGNTASLTISGFQAEDEADYYCCSYADTLVFGGGTKLTVL |  |  |  |  | binds | binds | binds | binds
IO-017 (antibody, V domains shown, also called 10-017) VH: QVQLVQSGAEVKKPGASVTVSCKASGYTFTGYHLHWVRQAPGQGLEWMGWINPFRGAIGYAQKFRGRVTMTRDTSINTAYMELRGLRSDDTAVYFCAREMFDSDDDWSPWRGMVAWGQGTLVTVSS VL: QSALTQPASVSGSPGQSITISCTGTSSDIGGYDLVSWYQQHPGKAPKLMIYDVNKRPSGVSNRFSGSKSGNTASLTISGFQAEDEADYYCCSYADTLVFGGGTKLTVL |  |  |  |  | binds |  | no binding | binds
IO-003 (antibody, V domains shown) VH: QVQLVQSGAEVKKPGASVTVSCKASGYTFTDYFIHWVRQAPGQGLEWMGWINPFRGAVDYAQKFRGRVTMTRDTSITTAYMELSRLRSDDTAVYYCARAMFDSSDEWSPWHGLVAWGQGTLVTVSS VL: QSALTQPASVSGSPGQSITISCTGTSRDIGSFNLVSWYQQHPGKAPKLMIYDVSKRPSGVSNRFSGSKSDNMASLIISGFQAEDEAEYFCCSFAGSLAFGGGTKLTVL |  |  |  |  |  | binds | binds | binds
IO-008 (antibody, V domains shown) VH: QVQLVQSGAEVKKPGASVTVSCKASGYTFTGYELHWVRQAPGQGLEWMGWINPYRGAVKYAQKFQGRVTMTRDTSISTAYMVLNGLRSDDTAVYYCARDMFDSSDEWSPWRGMVAWGQGTPVTVSS VL: QSALTQPASVSGSPGQSITISCTGTSSDVGSYDLVSWYQQHPGKAPKLMIYEVSKRPSGVSNRFSGSKSGNTASLTISGLQAEDEADYYCCSYADSLVFGGGTKVTGL |  |  |  |  |  | binds | binds | binds
IO-050 (antibody, V domains shown) VH: QVQLVQSGAEVKKPGASVRVSCKASGYTFTDYEIHWVRQAPGQGLEWMGWINPFRGAVKYRQKFQGRVTMTRDPSITTAYMELSRLRSDDTARYYCAREMFDSDDEWSPWRGMVAWGQGTLVTVSS VL: QSALTQPASVSGSPGQSITISCTGTSSDVGSYNLVSWYQQHPGKAPKLMIYEVSRRPSGVSNRFSGSKSGNTASLTISGFQAEDEADYYCCSYADTLIFGGGTKLTVL |  |  |  |  | binds | no binding | binds | binds
